Measured values from patent publication US12076390 (Dana-Farber, dated 2024).

Biological target: HA on infectious virus A/Brisbane/10/07 (H3N2-BR07) (influenza A virus A/Brisbane/10/07 …)
Experiment: cell-based or functional assay

B1: 3I14 VLD94N IgG1 (antibody, V domains shown)
VH: QVQLLESGGGVVQPGRSLRLSCAASGFTFSNYGMHWVRQAPGKGLEWVAIISFDGSKKYYANSVKGRSTISRDNSKNTLSLQMNSLGPEDTALYYCAKLPSPYYFDSRFVWVAASAFHFWGQGILVTVSS
VL: NFMLTQPPSASGTPGQRVTISCSGSSSNIGGNTVHWFQQLPGTAPKLLIYTNSLRPSGVPDRFSGSKSGTSASLAISGLQSEDEADYYCAAWDNSLNGQVFGGGTKLTVL
IC50, neutralization of infectious H3-BR07 virus: 0.337 µg/mL
